Source: patent publication US20240301062A1 (BEIGENE SWITZERLAND, published 2024)
Values joined by “and” are separate entries in the source; they are usually repeats but may differ in a detail not shown here. Equal entries are not always repeated.

T1: mouse CLDN6 (mouse, UniProt Q9Z262 1-219)
T1 construct: whole, on cells
T1 sequence (looked up): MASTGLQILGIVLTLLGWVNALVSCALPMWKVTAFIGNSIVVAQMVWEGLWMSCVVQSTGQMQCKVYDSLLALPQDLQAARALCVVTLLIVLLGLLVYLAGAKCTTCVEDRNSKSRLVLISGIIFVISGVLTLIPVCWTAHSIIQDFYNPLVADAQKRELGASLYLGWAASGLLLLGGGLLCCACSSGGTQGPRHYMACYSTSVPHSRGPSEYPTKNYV

T2: human claudin 6 (CLDN6) (human, UniProt P56747 1-220)
T2 construct: also called human CLDN6; hCLDN6
T2 sequence: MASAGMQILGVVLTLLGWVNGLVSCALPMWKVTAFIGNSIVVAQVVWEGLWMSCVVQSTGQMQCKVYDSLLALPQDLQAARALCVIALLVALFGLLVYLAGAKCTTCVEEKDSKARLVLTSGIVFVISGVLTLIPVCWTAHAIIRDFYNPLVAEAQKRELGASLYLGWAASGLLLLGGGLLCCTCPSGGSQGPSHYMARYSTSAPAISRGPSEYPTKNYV


How the values were obtained:
mouse CLDN6 = biological target: T1, mouse CLDN6; assay: flow cytometry on CHOK1/mouse CLDN6 cells, MFI(PE)
cyno CLDN6 [1] = biological target: T3, cyno CLDN6 (cyno); assay: FACS, HEK293T_cyno-CLDN6 cells
T3 construct: whole, on cells; also called cynomolgus CLDN6

human claudin 6 (CLDN6) [2] = biological target: T2, human claudin 6 (CLDN6); assay: FACS, HEK293T-hCLDN6 cells
cyno CLDN6 [3] = biological target: T3, cyno CLDN6; assay: flow cytometry on CHOK1/cyno CLDN6 cells, MFI(PE)
human claudin 6 (CLDN6) [4] = biological target: T2, human claudin 6 (CLDN6); assay: FACS, HEK293T/human CLDN6 cells
Protocol: (§1) For affinity determination, CLDN6 over-expressing HEK293T cells and cancer cell line PA-1 which express high levels of human CLDN6 were used to evaluate the binding activity of BG87P related engineering variants. Live cells were seeded in 96-well plate, and were incubated with a series of dilutions of chBG87P and engineered variants thereof. Goat anti-human IgG was used as second antibody to detect antibody binding to the cell surface. EC50 values for dose-dependent binding to CLDN6 expressing cell lines were determined by fitting the dose-response data to the four-parameter logistic model with GraphPad Prism. Cell binding activity of 1st round of BG87P humanization variants against HEK293T/human CLDN6 were compared to chBG87P and shown in FIG. 1A.
Beginning with the chBG87P antibody and BG87P-Bz0, several additional amino acid changes in the CDR regions of both VH and VL were made to further improve the biophysical properties for therapeutics use in human. The considerations included removing post translational modifications (PTM), improved heat stability (Tm), while maintaining binding activities, the resulted variants are BG87P-m1 (VH SEQ ID NO: 31 and VL SEQ ID NO: 8), BG87P-m2 (VH SEQ ID NO: 32 and VL SEQ ID NO: 8), BG87P-m3 (VH SEQ ID NO: 33 and VL SEQ ID NO: 8), and BG87P-m4 (VH SEQ ID NO: 34 and VL SEQ ID NO: 8) and BG87P-m5 (VH SEQ ID NO: 35 and VL SEQ ID NO: 14), BG87P-m6 (VH SEQ ID NO: 36 and VL SEQ ID NO 14), BG87P-m7 (VH SEQ ID NO: 37 and VL SEQ ID NO: 14), and BG87P-m8 (VH SEQ ID NO: 38 and VL SEQ ID NO: 14). Cell binding activity of chBG87P and BG87P-Bz0 related PTM removal variants against HEK293T/human CLDN6 was compared with chBG87P and BG87-Bz0, respectively ([…]). Cell binding affinity (EC50) and Emax (MFI) was normalized to chBG87P for directly comparison and ranking (Table 7).

human claudin 6 (CLDN6) [5] = biological target: T2, human claudin 6 (CLDN6); assay: FACS, PA-1 cells (endogenous CLDN6)
Protocol: as §1

cyno CLDN6 [6] = biological target: T3, cyno CLDN6; assay: FACS, HEK293T-cyno-CLDN6 cells
human claudin 6 (CLDN6) [7] = biological target: T2, human claudin 6 (CLDN6); assay: FACS, HEK293-hCLDN6 cells
human claudin 6 (CLDN6) [8] = biological target: T2, human claudin 6 (CLDN6); assay: flow cytometry on HEK293T/human CLDN6 cells, goat anti-human IgG secondary, MFI(PE)
Protocol: as §1

Row | Binder | binding result (mouse CLDN6) | EC50 (cyno CLDN6 [1]) [nM] | FACS Emax ratio to BG87P (human claudin 6 (CLDN6) [2]) [ratio] | EC50 (read off the curve) (cyno CLDN6 [3]) [nM] | EC50 (human claudin 6 (CLDN6) [4]) [nM] | Emax ratio to BG87P (human claudin 6 (CLDN6) [4]) [ratio] | Top MFI Mean (human claudin 6 (CLDN6) [4]) [MFI] | EC50 (human claudin 6 (CLDN6) [5]) | Emax ratio to BG87P (human claudin 6 (CLDN6) [5]) [ratio] | FACS Emax ratio to BG87P (cyno CLDN6 [6]) [ratio] | FACS-Ec50 ratio to BG87P (human claudin 6 (CLDN6) [7]) [ratio] | EC50 (read off the curve) (human claudin 6 (CLDN6) [8]) [nM] | Top MFI Mean (human claudin 6 (CLDN6) [5]) [MFI]
1 | BG87P-21 (antibody, V domains shown) VH: QVQLVQSGAEVKKPGASVKVSCKASGYSFTDYHINWVRQAPGQRLEWMGWIYPGSGYTKYNEKFKGRVTITRDTSASTAYMELSSLRSEDTAVYYCARSGIYHYVSSYYFDHWGKGTTVTVSS VL: DIQMTQSPSTLSASVGDRVTITCKASQDVGTAVAWYQQKPGKAPKLLIYWASTRHTGVPSRFSGSGSGTEFTLTISSLQPDDFATYYCQQYSSYTFGGGTKVEIK | binds | 8.9 | 0.66 | ~9 | 3.07 | 0.78 | 149000 | 2.8 nM and 2.62 nM | 0.61 | 0.8 | 0.91 | ~10 | –
2 | BG87P-31 (antibody, V domains shown, Solubility engineering variant of BG87P-21) VH: QVQLQQSGAETKKPGASVKVSCKASGYSFTDYHINWVRQASGQRLEWMGYIYPGSGHTKKNEKFKGRVTITRDTSASTAYMELSSLRSEDTAVYYCARSGIYHYVSSYYFDHWGKGTTVTVSS VL: DIQMTQSPSTLSASVGDRVTITCKASQDAGSAVAWYQQKPGKAPKLLIKWASTRHTGVPSRFSGSGSGTEFTLTISSLQPDDFATYYCQQYSSYTFGGGTKVEIK | – | – | 0.76 | – | – | – | – | – | – | – | 1.6 | – | –
3 | BG87P-32 (antibody, V domains shown, Solubility engineering variant of BG87P-21) VH: QVQLQQSGAETKKPGASVKVSCKASGYSFTDYHINWVRQASGQRLEWMGYIYPGSGHTKKNEKFKGRVTITRDTSASTAYMELSSLRSEDTAVYYCARSGIYHYVSSYYFDHWGKGTTVTVSS VL: DIQMTQSPSTLSASVGDRVTITCKASQDAGSAVAWYQQKPGKAPKLLIYWASTRHTGVPSRFSGSGSGTEFTLTISSLQPDDFATYYCQQYSSYTFGGGTKVEIK | – | – | 0.63 | – | – | – | – | – | – | – | 1.31 | – | –
4 | BG87P-z0 (antibody, V domains shown) VH: QVQLVQSGAEVKKPGASVKVSCKASGYTFTDYHINWVRQAPGQRLEWMGWIYPGSGYTKYNEKFKVRVTITRDTSASTAYMELSSLRSEDTAVYYCARSGIYHYVSSYYFDHWGKGTTVTVSS VL: DIQMTQSPSTLSASVGDRVTITCKASQDVGTAVAWYQQKPGKAPKLLIYWASTRHTGVPSRFSGSGSGTEFTLTISSLQPDDFATYYCQQYSSYTFGGGTKVEIK | – | – | – | – | 2.45 | 0.5 | 95600 | 3.25 nM | 0.43 | – | – | – | 53200
5 | BG87P-23 (antibody, V domains shown) VH: QIQLVQSGAEVKKPGASVKVSCKASGYSFTDYHINWVRQAPGQRLEWMGWIYPGSGYTKYNEKFKGRVTITRDTSASTAYMELSSLRSEDTAVYYCARSGIYHYVSSYYFDHWGKGTTVTVSS VL: DIQMTQSPSTLSASVGDRVTITCKASQDVGTAVAWYQQKPGKAPKLLIYWASTRHTGVPSRFSGSGSGTEFTLTISSLQPDDFATYYCQQYSSYTFGGGTKVEIK | – | – | – | – | 2.43 | 0.77 | 148000 | 2.49 nM | 0.58 | – | – | – | 72500
6 | BG87P-33 (antibody, V domains shown, Framework-swapped variant; also called BG87-33) VH: EVQLQESGGGLVQPGGSLRLSCAASGYSFTDYHINWVRQAPGKGLEWVSYIYPGSGHTKYNEKFKGRFTISRDTSKNTAYLQMNSLRAEDTAVYYCARSGIYHYVSSYYFDHWGQGTLVTVSS VL: DIQMTQSPSTLSASVGDRVTITCKASQDAGSAVAWYQQKPGKAPKLLIYWASTRHTGVPSRFSGSGSGTEFTLTISSLQPDDFATYYCQQYSSYTFGGGTKVEIK | binds | 25.8 | 0.91 | – | – | – | – | – | – | 0.75 | 2.45 | – | –
7 | BG87P-27 (antibody, V domains shown) VH: QVQLVQSGAEVKKPGASVKVSCKASGYSFTDYHINWVRQAPGQRLEWMGWIYPGSGYTKYNEKFKGRVTLTRDTSASTAYMELSSLRSEDTAVYFCARSGIYHYVSSYYFDHWGKGTTVTVSS VL: DIQMTQSPSTLSASVGDRVTITCKASQDVGTAVAWYQQKPGKAPKLLIYWASTRHTGVPSRFSGSGSGTEFTLTISSLQPDDFATYYCQQYSSYTFGGGTKVEIK | – | – | – | – | 2 | 0.68 | 131000 | 1.68 nM | 0.53 | – | – | – | 66700
8 | BG87P-26 (antibody, V domains shown) VH: QIQLVQSGAEVKKPGASVKVSCKASGYSFTDYHINWVRQAPGQRLEWMGWIYPGSGYTKYNEKFKGRVTITRDTSASTAYMELSSLRSEDTAVYFCARSGIYHYVSSYYFDHWGKGTTVTVSS VL: DIQMTQSPSTLSASVGDRVTITCKASQDVGTAVAWYQQKPGKAPKLLIYWASTRHTGVPSRFSGSGSGTEFTLTISSLQPDDFATYYCQQYSSYTFGGGTKVEIK | – | – | – | – | 2.3 | 0.77 | 148000 | 2.3 nM and 2.52 nM | 0.54 | – | – | – | 68000
9 | BG87P-25 (antibody, V domains shown) VH: QIQLVQSGAEVKKPGASVKVSCKASGYSFTDYHINWVRQAPGQRLEWMGWIYPGSGYTKYNEKFKGRVTLTRDTSASTAYMELSSLRSEDTAVYYCARSGIYHYVSSYYFDHWGKGTTVTVSS VL: DIQMTQSPSTLSASVGDRVTITCKASQDVGTAVAWYQQKPGKAPKLLIYWASTRHTGVPSRFSGSGSGTEFTLTISSLQPDDFATYYCQQYSSYTFGGGTKVEIK | – | – | – | – | 2.33 | 0.74 | 143000 | 2.34 nM | 0.59 | – | – | – | 73700
10 | BG87P-22 (antibody, V domains shown) VH: QVQLVQSGAEVKKPGASVKVSCKASGYSFTDYHINWVRQAPGQRLEWMGWIYPGSGYTKYNEKFKGRVTITRDTSASTAYMELSSLRSEDTAVYFCARSGIYHYVSSYYFDHWGKGTTVTVSS VL: DIQMTQSPSTLSASVGDRVTITCKASQDVGTAVAWYQQKPGKAPKLLIYWASTRHTGVPSRFSGSGSGTEFTLTISSLQPDDFATYYCQQYSSYTFGGGTKVEIK | – | – | – | – | 2.12 | 0.71 | 137000 | 3.01 nM and 3 nM | 0.54 | – | – | – | –
11 | BG87P-24 (antibody, V domains shown) VH: QVQLVQSGAEVKKPGASVKVSCKASGYSFTDYHINWVRQAPGQRLEWMGWIYPGSGYTKYNEKFKGRVTLTRDTSASTAYMELSSLRSEDTAVYYCARSGIYHYVSSYYFDHWGKGTTVTVSS VL: DIQMTQSPSTLSASVGDRVTITCKASQDVGTAVAWYQQKPGKAPKLLIYWASTRHTGVPSRFSGSGSGTEFTLTISSLQPDDFATYYCQQYSSYTFGGGTKVEIK | – | – | – | – | 2.16 | 0.73 | 141000 | 2.27 nM | 0.5 | – | – | – | 62400
12 | BG87P-m4 (antibody, V domains shown, Variant of chBG87P with H33A; constant regions not restated (parent: human IgG1/kappa)) VH: QIQLQQSGPELVKPGASVKISCKASGYSFTDYAINWVKQRPGQGLEWIGWIYPGSGYTKYNEKFKVKATLTVDTSSSTAYMHLTSLTSEDSAVYFCARSGIYHYVSSYYFDHWGQGTTLTVSS VL: DIVMTQSHTFMSTSVGDRVSITCKASQDVGTAVAWYQQKPGQSPKLLIYWASTRHTGVPDRFTGSGSGTDFTLTISNVQSEDLADYFCQQYSSYTFGGGTKLEIK | – | – | – | – | 11.8 | 0.74 | 143000 | – | – | – | – | – | –
